For this experiment, the target named is T1, 生物素化的IL-17A of the IL-17A[Biotinylated] : IL-17RA Inhibitor Screening ELISA Kit (ACROBiosystems, EP-139) (UniProt Q16552).
T1 sequence (biotinylated, looked up): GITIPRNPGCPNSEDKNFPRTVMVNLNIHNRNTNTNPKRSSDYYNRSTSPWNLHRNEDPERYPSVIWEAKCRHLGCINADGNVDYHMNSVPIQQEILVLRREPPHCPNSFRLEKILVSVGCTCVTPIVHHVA
Kind of experiment: competition ELISA kit (ACROBiosystems EP-139): IL-17RA coated, biotinylated IL-17A, culture supernatant diluted 5-fold. A general note: In an ELISA, binding on a coated surface is turned into a signal by an enzyme label.

B1: IL-17Nb secreted by C3-H10-MSC (1-C3-3-H10: Fc融合蛋白, VHH-(GGGGS)3-VHH-IgG4 Fc) (Fc fusion)
chain: DVQLVESGGGLVEPGESLRLSCAAPGEDLGYYAIAWFRQAPGKEREVVSCVTSSGSSTNYLSSVKDRFTISIDNAKNTVYLQMNSLKPEDTAVYYCASTILLCSDYISAFGTWGQGTQVTVASGGGGSGGGGSGGGGSEVQLVESGGGLVQPGGSLRLSCAASGFSIHIYAMGWYRQAPGKQRELVATITRGGVTNNADSVKGRFTISRDNAKNTAYLQMNSLKPEDTAVYYCNAGGTNGGYWGQGTQVTVSSAPEFLGGPSVFLFPPKPKDTLMISRTPEVTCVVVDVSQEDPEVQFNWYVDGVEVHNAKTKPREEQFNSTYRVVSVLTVLHQDWLNGKEYKCKVSNKGLPSSIEKTISKAKGQPREPQVYTLPPSQEEMTKNQVSLTCLVKGFYPSDIAVEWESNGQPENNYKTTPPVLDSDGSFFLYSRLTVDKSRWQEGNVFSCSVMHEALHNHYTQKSLSLSLGK
B1 yielded a 结合抑制率 of 58%.
